Laboratory results: patent publication US20240034813A1 (Janssen / Centocor, published 2024)

Experiments:
[1] = target: T1, recombinant cMet/HGFR with c-terminal His-tag, Cy5-labeled (UniProt P08581 25-932, limits assumed, Cy5 label (reacted with Cy5 Mono NHS Ester; sites not stated)); experiment: competitive TR-FRET (Eu-amivantamab/Cy5-c-MET), EC50 ratio vs Reference Material; Ex. 2 Formulation 1 (10 mM histidine), T0, 40 C table
T1 construct: Commercial protein; also called Cy5-c-MET; Cy5-labeled c-MET antigen; not shown: C-terminal His-tag
Excerpt: (§1) In this procedure, varying concentrations of unlabeled bispecific EGFR-cMet antibody sample compete with donor fluorophore (Europium (Eu) chelate) labeled bispecific EGFR-cMet antibody for binding to an acceptor fluorophore (Cy5)-labeled c-MET antigen. Excitation of the donor fluorophore results in a transfer of energy to the bound acceptor fluorophore (FRET process). The resultant FRET is detected by emission of light at 665 nm using a microplate reader capable of measuring time-resolved fluorescence. Sample dose response curves are compared to the Reference Material (RM).
(§2) c-MET Binding Materials and Methods. Certified commercial cMet, a recombinant cMet/HGFR with c-terminal His-tag is reacted with certified commercial Cy5 Mono NHS Ester to produce Cy5-labeled c-MET. Validated bispecific EGFR-cMet antibody is reacted with certified commercial Europium (Eu) chelate to produce Eu labeled bispecific EGFR-cMet antibody. […] Fluorescence is then measured by spectrophotometry at 665 nm, plotted against antibody concentration and analyzed by a four-parameter logistic model. The antibody concentration required to obtain half of the maximum fluorescence response (EC50) is determined for RM, assay control and samples. The potencies of assay control and samples are calculated based on the ratio of the sample (or control) and RM EC50 values and reported as a percentage activity relative to the RM.

[2] = target: T1, recombinant cMet/HGFR with c-terminal …; experiment: competitive TR-FRET (Eu-amivantamab/Cy5-c-MET), EC50 ratio vs Reference Material; Ex. 11 drug product, 0 months, 40 C table
Excerpt: as §1, §2

[3] = target: T2, recombinant human EGFR/ErbB1/HER1 with C-terminal His tag, Cy5-labeled (human, UniProt P00533 25-645, Cy5 label (reacted with Cy5 Mono NHS Ester; sites not stated)); experiment: competitive TR-FRET (Eu-amivantamab/Cy5-EGFR), EC50 ratio vs Reference Material; Ex. 12 drug product with rHuPH20, 0 months, 40 C table
T2 construct: Commercial protein; also called Cy5-EGFR; Cy5-labeled EGFR antigen; not shown: C-terminal His tag
Excerpt: as §1, with “EGFR” for “c-MET”, “RM.” for “Reference Material (RM).”
as §2, with “EGFR” for “c-MET”, “EGFR,” for “cMet,”, “human EGFR/ErbB1/HER1” for “cMet/HGFR”, “C-terminal His tag” for “c-terminal His-tag”, “EGFR.” for “c-MET.”, “Eu-labeled” for “Eu labeled”

[4] = target: T1, recombinant cMet/HGFR with c-terminal …; experiment: competitive TR-FRET (Eu-amivantamab/Cy5-c-MET), EC50 ratio vs Reference Material; Ex. 11 drug product, 6 months at 25 C
Excerpt: as §1, §2

[5] = target: T2, recombinant human EGFR/ErbB1/HER1 with …; experiment: competitive TR-FRET (Eu-amivantamab/Cy5-EGFR), EC50 ratio vs Reference Material; Ex. 2 Formulation 3 (acetate), 3 months at 40 C
Excerpt: as §1, with “EGFR” for “c-MET”, “RM.” for “Reference Material (RM).”
as §2, with “EGFR” for “c-MET”, “EGFR,” for “cMet,”, “human EGFR/ErbB1/HER1” for “cMet/HGFR”, “C-terminal His tag” for “c-terminal His-tag”, “EGFR.” for “c-MET.”, “Eu-labeled” for “Eu labeled”

[6] = target: T2, recombinant human EGFR/ErbB1/HER1 with …; experiment: competitive TR-FRET (Eu-amivantamab/Cy5-EGFR), EC50 ratio vs Reference Material; Ex. 12 drug product with rHuPH20, 6 months at 5 C
Excerpt: as §1, with “EGFR” for “c-MET”, “RM.” for “Reference Material (RM).”
as §2, with “EGFR” for “c-MET”, “EGFR,” for “cMet,”, “human EGFR/ErbB1/HER1” for “cMet/HGFR”, “C-terminal His tag” for “c-terminal His-tag”, “EGFR.” for “c-MET.”, “Eu-labeled” for “Eu labeled”

[7] = target: T2, recombinant human EGFR/ErbB1/HER1 with …; experiment: competitive TR-FRET (Eu-amivantamab/Cy5-EGFR), EC50 ratio vs Reference Material; Ex. 3 acetate formulation, 6 months at 25 C then shaking up to 72 h
Excerpt: as §1, with “EGFR” for “c-MET”, “RM.” for “Reference Material (RM).”
as §2, with “EGFR” for “c-MET”, “EGFR,” for “cMet,”, “human EGFR/ErbB1/HER1” for “cMet/HGFR”, “C-terminal His tag” for “c-terminal His-tag”, “EGFR.” for “c-MET.”, “Eu-labeled” for “Eu labeled”

[8] = target: T1, recombinant cMet/HGFR with c-terminal …; experiment: competitive TR-FRET (Eu-amivantamab/Cy5-c-MET), EC50 ratio vs Reference Material; Ex. 12 drug product with rHuPH20, 3 months at 25 C
Excerpt: as §1, §2

cMET Binding % activity relative to RM [1]: 87%
cMET Binding activity relative to Reference Material (%) [2]: 85%
EGFR Binding activity relative to Reference Material (%) [3]: 92%
cMET Binding activity relative to Reference Material (%) [4]: 113%
EGFR Binding % activity relative to RM [5]: 46%
EGFR Binding activity relative to Reference Material (%) [6]: 89%
EGFR Binding % activity relative to RM [7]: 86%
cMET Binding activity relative to Reference Material (%) [8]: 81%
B1: amivantamab (bispecific antibody, human IgG1, kappa)
heavy 1: not shown
light 1: not shown
heavy 2: not shown
light 2: DIQMTQSPSSVSASVGDRVTITCRASQGISNWLAWFQHKPGKAPKLLIYAASSLLSGVPSRFSGSGSGTDFTLTISSLQPEDFATYYCQQANSFPITFGQGTRLEIKRTVAAPSVFIFPPSDEQLKSGTASVVCLLNNFYPREAKVQWKVDNALQSGNSQESVTEQDSKDSTYSLSSTLTLSKADYEKHKVYACEVTHQGLSSPVTKSFNRGEC
notes: The samples tested were high concentration (160 mg/mL) formulations, fresh or stored or stressed; also called JNJ-61186372; bispecific EGFR-cMet antibody
